Assay results reported in US20090117096A1 (Scripps Research, published 2009).

Columns and labels:
[1] = target: T1, integrin α5β1 (human, UniProt P08648 42-1049; P05556 21-798); assay: flow cytometry on human tumor cell panel (FIG. 1)
T1 construct: whole, on cells
Method: Flow cytometry. scFv binding to human tumor cells was analyzed by flow cytometry, initially with cloned scFv phage and then with purified scFv protein. […] Binding/washing buffer was TBS with or without divalent cations (1 mM Ca²⁺, 1 mM Mg²⁺, 0.2 mM Mn²⁺). […] All samples were counter stained with propidium iodide (PI) and analyzed on a Becton-Dickinson FACScan, with live gate set to exclude PI positive cells.

[2] = target: T2, integrin αvβ5 (human, UniProt P06756 31-1048; P18084 24-799); assay: flow cytometry on human tumor cell panel (summary statement)
T2 construct: whole, on cells

[3] = target: T3, integrin αvβ1 (human, UniProt P06756 31-1048; P05556 21-798); assay: as above
T3 construct: whole, on cells

Measured: binding result

T3 sequence (P06756 31-1048, chain 1 of 2): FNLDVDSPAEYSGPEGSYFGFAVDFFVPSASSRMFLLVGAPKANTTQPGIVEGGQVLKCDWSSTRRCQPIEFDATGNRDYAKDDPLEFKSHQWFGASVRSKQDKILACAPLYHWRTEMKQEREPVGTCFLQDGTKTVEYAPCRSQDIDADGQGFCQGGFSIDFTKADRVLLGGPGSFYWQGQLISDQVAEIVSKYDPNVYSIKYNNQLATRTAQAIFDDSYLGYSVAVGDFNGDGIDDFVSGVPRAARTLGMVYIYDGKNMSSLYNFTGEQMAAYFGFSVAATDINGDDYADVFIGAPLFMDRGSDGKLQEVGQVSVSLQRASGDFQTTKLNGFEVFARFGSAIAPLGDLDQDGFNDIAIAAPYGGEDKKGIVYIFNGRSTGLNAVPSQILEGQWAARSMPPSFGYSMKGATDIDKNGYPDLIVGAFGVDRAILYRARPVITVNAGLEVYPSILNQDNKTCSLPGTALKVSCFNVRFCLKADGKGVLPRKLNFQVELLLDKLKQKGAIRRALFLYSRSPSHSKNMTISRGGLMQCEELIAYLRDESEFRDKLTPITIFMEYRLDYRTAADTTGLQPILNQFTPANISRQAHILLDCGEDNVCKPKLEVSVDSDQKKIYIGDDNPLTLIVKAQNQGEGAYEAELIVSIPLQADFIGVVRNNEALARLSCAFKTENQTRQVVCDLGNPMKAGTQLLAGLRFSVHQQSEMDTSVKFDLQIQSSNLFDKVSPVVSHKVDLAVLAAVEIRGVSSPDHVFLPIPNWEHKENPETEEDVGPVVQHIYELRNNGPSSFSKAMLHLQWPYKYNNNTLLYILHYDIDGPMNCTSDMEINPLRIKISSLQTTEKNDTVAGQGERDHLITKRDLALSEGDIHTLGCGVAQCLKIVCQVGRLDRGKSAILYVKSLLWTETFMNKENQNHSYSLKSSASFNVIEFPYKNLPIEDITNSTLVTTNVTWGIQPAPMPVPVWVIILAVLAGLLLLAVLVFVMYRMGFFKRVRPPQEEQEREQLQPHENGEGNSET
T3 sequence (P05556 21-798, chain 2 of 2): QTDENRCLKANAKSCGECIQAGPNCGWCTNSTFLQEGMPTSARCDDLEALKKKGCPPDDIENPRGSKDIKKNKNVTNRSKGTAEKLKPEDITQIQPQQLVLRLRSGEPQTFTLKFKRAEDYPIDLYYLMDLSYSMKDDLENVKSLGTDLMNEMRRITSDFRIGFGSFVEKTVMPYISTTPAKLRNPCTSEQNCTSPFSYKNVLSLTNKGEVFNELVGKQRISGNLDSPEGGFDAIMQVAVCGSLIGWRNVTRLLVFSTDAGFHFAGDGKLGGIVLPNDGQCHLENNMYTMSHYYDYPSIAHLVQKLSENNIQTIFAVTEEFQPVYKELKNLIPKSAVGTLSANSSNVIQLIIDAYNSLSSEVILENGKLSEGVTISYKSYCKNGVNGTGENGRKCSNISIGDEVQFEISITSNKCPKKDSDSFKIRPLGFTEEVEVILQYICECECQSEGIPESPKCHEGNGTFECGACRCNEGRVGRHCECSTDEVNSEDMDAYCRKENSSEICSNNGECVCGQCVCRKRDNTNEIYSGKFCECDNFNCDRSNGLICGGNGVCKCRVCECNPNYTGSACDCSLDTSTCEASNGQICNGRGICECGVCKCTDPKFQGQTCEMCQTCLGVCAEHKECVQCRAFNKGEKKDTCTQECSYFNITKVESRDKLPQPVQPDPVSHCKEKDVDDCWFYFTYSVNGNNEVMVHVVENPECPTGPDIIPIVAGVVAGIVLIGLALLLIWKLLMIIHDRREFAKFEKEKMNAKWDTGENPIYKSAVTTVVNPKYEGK
T2 sequence (P06756 31-1048, chain 1 of 2): as the sequence (P06756 31-1048, chain 1 of 2) above
T2 sequence (P18084 24-799, chain 2 of 2): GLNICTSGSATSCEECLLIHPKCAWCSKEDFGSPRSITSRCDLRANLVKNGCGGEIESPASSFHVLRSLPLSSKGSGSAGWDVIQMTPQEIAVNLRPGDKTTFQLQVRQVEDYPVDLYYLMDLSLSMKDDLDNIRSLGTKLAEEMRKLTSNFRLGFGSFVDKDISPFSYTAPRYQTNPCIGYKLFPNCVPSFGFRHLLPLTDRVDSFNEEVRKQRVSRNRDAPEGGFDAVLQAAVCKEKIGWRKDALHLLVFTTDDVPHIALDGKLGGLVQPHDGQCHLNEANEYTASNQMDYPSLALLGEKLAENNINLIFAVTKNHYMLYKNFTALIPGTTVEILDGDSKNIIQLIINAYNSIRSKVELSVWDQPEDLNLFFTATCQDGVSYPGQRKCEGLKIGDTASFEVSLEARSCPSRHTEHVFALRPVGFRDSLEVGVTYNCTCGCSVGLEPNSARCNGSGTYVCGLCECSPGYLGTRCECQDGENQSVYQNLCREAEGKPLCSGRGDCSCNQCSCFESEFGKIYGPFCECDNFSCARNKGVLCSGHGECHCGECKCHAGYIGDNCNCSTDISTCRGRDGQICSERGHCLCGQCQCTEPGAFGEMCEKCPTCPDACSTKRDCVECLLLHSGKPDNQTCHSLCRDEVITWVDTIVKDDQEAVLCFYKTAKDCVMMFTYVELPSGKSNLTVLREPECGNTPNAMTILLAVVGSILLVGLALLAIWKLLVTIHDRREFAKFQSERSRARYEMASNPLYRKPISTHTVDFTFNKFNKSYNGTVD
T1 sequence (P08648 42-1049, chain 1 of 2): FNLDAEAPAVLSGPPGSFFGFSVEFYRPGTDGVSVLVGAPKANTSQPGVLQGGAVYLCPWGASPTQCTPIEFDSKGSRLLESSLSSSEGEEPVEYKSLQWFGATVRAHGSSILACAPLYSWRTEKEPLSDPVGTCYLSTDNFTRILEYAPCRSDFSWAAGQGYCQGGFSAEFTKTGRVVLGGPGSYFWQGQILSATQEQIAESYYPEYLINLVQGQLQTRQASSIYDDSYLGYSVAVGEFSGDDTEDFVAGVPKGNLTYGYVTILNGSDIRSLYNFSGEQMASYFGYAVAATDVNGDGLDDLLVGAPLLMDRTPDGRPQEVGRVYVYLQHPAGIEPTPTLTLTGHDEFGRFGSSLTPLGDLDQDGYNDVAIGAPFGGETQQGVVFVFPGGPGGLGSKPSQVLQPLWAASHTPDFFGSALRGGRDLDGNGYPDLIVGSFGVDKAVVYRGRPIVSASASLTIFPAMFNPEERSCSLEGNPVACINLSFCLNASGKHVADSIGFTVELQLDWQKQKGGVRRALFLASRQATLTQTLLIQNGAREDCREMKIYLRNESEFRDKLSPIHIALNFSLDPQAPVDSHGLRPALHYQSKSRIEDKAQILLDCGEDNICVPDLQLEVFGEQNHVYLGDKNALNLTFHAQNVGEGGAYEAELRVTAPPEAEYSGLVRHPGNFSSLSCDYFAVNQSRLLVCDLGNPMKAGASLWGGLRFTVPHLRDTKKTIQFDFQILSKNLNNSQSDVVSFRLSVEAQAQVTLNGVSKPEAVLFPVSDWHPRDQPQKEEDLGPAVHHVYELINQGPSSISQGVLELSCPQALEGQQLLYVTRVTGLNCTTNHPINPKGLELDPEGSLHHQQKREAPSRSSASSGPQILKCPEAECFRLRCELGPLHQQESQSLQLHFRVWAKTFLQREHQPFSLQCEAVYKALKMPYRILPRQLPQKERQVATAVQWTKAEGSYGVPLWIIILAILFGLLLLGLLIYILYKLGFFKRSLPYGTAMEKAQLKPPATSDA
T1 sequence (P05556 21-798, chain 2 of 2): as the sequence (P05556 21-798, chain 2 of 2) above

B1: scFv antibody Bc-12 (scFv)
scFv: MAQVQLVQSGAEVKKPGASVKVSCKASGYTFSNYGITWVRQAPGQGLEWMGWINNGNTHYAQKFQGRVTMTTDTSTSTAYMELRSLRSDDTAVYYCARDPRGDDEPYWGQGTLVTVSSGGGGSGGGGSGGGGSEIVLTQSPLSLPVTLGQPASISCRSSQNLVYSDGNTYLSWFQQRPGQSPRRLIYKVSNRDSGVPDRFSGSGSGTDFTLKISRVEAEDIGVYYCMQGTHWPPRTFGQGTKVEIKRGLGGLVDYKDDDDK
notes: also called scFv Bc-12
no binding: all assays above
